# Experimental data reported in US20130084301A1 (published 2013).
# Tests used:
# [1] = target: T1, HCV 1a E2 with alanine substitution at 429 (hepatitis C virus genotype 1a, H77c, UniProt P27958 384-746); experiment: alanine-substitution ELISA
# [2] = target: HCV 1a E2 with alanine substitution at 616 (hepatitis C virus genotype 1a, H77c, UniProt P27958 384-746); experiment: alanine-substitution ELISA
# [3] = target: T2, HCV 1a E2 with alanine substitution at 443 (hepatitis C virus genotype 1a, H77c, UniProt P27958 384-746); experiment: alanine-substitution ELISA, antibody 2 ug/ml
# [4] = target: HCV 1a E2 with alanine substitution at 613 (hepatitis C virus genotype 1a, H77c, UniProt P27958 384-746); experiment: alanine-substitution ELISA, antibody 2 ug/ml
# [5] = target: T3, HCV 1a E2 with alanine substitution at 441 (hepatitis C virus genotype 1a, H77c, UniProt P27958 384-746); experiment: alanine-substitution ELISA, antibody 2 ug/ml
# [6] = target: T4, HCV 1a E2 with alanine substitution at 442 (hepatitis C virus genotype 1a, H77c, UniProt P27958 384-746); experiment: alanine-substitution ELISA, antibody 2 ug/ml
# [7] = target: T2, HCV 1a E2 with alanine substitution at …; experiment: alanine-substitution ELISA; row marked *: tested at 0.2 ug/ml
# [8] = target: T3, HCV 1a E2 with alanine substitution at …; experiment: as above
# [9] = target: T1, HCV 1a E2 with alanine substitution at …; experiment: as above
# [10] = target: T4, HCV 1a E2 with alanine substitution at …; experiment: as above
# [11] = target: T2, HCV 1a E2 with alanine substitution at …; experiment: alanine-substitution ELISA
# [12] = target: T4, HCV 1a E2 with alanine substitution at …; experiment: alanine-substitution ELISA
# [13] = target: HCV 1a E2 with alanine substitution at 420 (hepatitis C virus genotype 1a, H77c, UniProt P27958 384-746); experiment: alanine-substitution ELISA, antibody 2 ug/ml
# [14] = target: HCV 1a E2 with alanine substitution at 437 (hepatitis C virus genotype 1a, H77c, UniProt P27958 384-746); experiment: alanine-substitution ELISA, antibody 2 ug/ml
# [15] = target: HCV 1a E2 with alanine substitution at 428 (hepatitis C virus genotype 1a, H77c, UniProt P27958 384-746); experiment: alanine-substitution ELISA, antibody 2 ug/ml
# [16] = target: T1, HCV 1a E2 with alanine substitution at …; experiment: alanine-substitution ELISA, antibody 2 ug/ml
Binder,binding result [1],binding result [2],% of binding to wt E2 [3] [%],% of binding to wt E2 [5] [%],% of binding to wt E2 [6] [%],% of binding to wt E2 [13] [%],% of binding to wt E2 [14] [%],% of binding to wt E2 [15] [%],other results
"HC-84.20 (antibody, V domains shown) VH: QVQLVQSGSEVKKPGSSVKVSCKASGGTFNIYTVNWVRQAPGQGLEWMGRIIPMLGSADYAQRFQGRVTISADKSTSTAYMELRNLKSEDTAVYYCARSLPREMFFRDDAFDIWGQGTMVTVSS VL: ETTLTQSPGTLSLSPGERATLSCRASQSVSSNLAWYQQKPGQAPRLLIYGASTRATGIPDRFSGSGSGTDFTLTISRLEPDDFVVYYCQQYGSSPVTFGQGTRLEIKR",no binding (tested: 2 ug/ml),no binding (tested: 2 ug/ml),26,6,26,–,–,–,% of binding to wt E2 [4]: 20%
"HC-84.21 (antibody, V domains shown, also called CBH-84.21) VH: QVQLVQSGAEVKKPGSSVKVSCKASGTSFNRYTFAWVRQAPGQGLEWVGTIIPIVGLTNYAEKFQGRVSITADKSTSTTYMELSSLRSEDTAVYFCARKVEFWLGEIAPNKFDVFDLWGQGTMVTVSS VL: EIVLTQSPDSLAVSLGERATIHCKSSQSIFFSSNSKDYLAWYQQKPGQPPKLLIYWASTRDSGVPDRFSGSGSGTDFTLTITGLQADDAAVYYCQQFDTPQITFGGGTKLEIKR",–,–,–,–,–,–,–,–,% of binding to wt E2 [7]: 35%; % of binding to wt E2 [8]: 28%; % of binding to wt E2 [9]: 15%; % of binding to wt E2 [10]: 20%
"HC-84.22 (antibody, V domains shown) VH: EVQLVQSGAEVKKPGSSVKVSCKASGDTFSSYSIHWVRQAPGQGLEWMGRIIPIVGLVDYAQMFQGRVTISADRSTNTVYMDLSNLRSEDTAIYYCARSLGCPNGVCHGPRAADYFDYWGQGTLVTVSS VL: EMTLTQSPSSLSASVGDRVTITCRASQSISSWLAWYQQKPGKAPKLLIYDASNLETGVPSRFSGSGSGTDFTFTISSLQPEDIATYYCQQYDNLPRTFGQGTKVDIKR",no binding (tested: 2 ug/ml),no binding (tested: 2 ug/ml),–,2,–,18,8,19,binding result [11]: no binding (tested: 2 ug/ml); binding result [12]: no binding (tested: 2 ug/ml)
"HC-84.23 (antibody, V domains shown, also called HC-23) VH: QVQLVESGAEVKKPGSSVKVSCKASGDTFSSYSIHWVRQAPGQGLEWMGRIIPIVGLVDYAQMFQGRVTISADRSTNTVYMDLSNLRSEDTAYYCARASLGCPNGVCHGPRAADYFDYWGQGTLVTVSS VL: EIVLTQSPGTVSLFPGDRVTLSCRASQRVPSSSLAWYQQKPGQAPRLLLYGASSRATGIPDRFSGRGSGTDFALSISRLEPEDFAVYYCQQYGSSLITFGQGTRLEIKR",–,–,–,2,–,20,15,20,–
"HC-84.24 (antibody, V domains shown) VH: QVQLVQSGAEVKKPGSSVKVSCKASGGTFSLNSLSWVRQAPGQGLEWMGTIIPIVGIANYAQKFQGRVTITADKSTGTAYMDLSSLSDDTAVYFCARELYSGTGFFRLEALDYWGQGTLVTVSS VL: DIQMTQSPATLSLSPGERATLSCRASQSVSSYLAWYQQKPGQAPRLLIYDASNRATGIPARFIAGGSGTDFTLTISSLEPEDFAVYYCQQYGSPQTFGQGTKLEIKR",–,–,1,–,14,–,–,–,% of binding to wt E2 [16]: 1%
